Data published in patent US20220362404A1 (MACQUARIE UNIVERSITY, published 2022).

T1: Flag-tagged cyclin F (Homo sapiens (Human), UniProt P41002 1-786)
T1 construct: Expressed in HEK293 cells and immunoprecipitated with anti-Flag; In the ubiquitylation assay it stood with co-immunoprecipitated Skp1, Cul1 and Rbx1; also called cyclin F-flag; Flag-cyclin F; not shown: C-terminal Flag tag
T1 sequence: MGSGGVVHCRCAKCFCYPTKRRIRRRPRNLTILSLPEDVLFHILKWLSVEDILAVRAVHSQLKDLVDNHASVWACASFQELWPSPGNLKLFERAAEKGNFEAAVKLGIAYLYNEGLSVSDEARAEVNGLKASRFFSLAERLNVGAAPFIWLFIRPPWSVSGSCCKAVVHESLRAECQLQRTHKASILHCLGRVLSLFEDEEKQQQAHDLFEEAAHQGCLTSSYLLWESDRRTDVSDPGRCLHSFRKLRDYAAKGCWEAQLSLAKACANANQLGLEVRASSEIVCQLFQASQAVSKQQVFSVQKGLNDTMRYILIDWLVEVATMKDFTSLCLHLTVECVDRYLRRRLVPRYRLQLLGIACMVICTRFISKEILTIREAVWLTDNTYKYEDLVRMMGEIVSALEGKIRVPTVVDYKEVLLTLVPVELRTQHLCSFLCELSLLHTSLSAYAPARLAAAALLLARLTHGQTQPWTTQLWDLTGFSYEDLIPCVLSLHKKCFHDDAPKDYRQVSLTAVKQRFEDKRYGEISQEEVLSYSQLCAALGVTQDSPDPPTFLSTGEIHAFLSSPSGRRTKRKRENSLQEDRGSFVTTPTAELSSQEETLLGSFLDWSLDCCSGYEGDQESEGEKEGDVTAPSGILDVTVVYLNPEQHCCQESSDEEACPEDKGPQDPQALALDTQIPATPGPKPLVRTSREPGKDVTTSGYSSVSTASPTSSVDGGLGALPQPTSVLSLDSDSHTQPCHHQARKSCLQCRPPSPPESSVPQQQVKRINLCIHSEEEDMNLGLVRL


Key:
[1] = target: T2, recombinant His-tagged TDP-43 (full length) (UniProt Q13148 1-414); assay: microscale thermophoresis, labelled His-TDP-43, GST-cyclin domain titrated
T2 construct: In MST it was labelled with RED-tris-NTA dye on the His tag; also called His-TDP-43; recombinant TDP-43; not shown: His tag, printed as His-TDP-43
Description: Recombinant His-tagged TDP-43 (a gift from Professor Julie Atkin's laboratory) was diluted to 200 nM in PBS-T buffer (137 mM NaCl, 2.5 mM KCl, 10 mM Na2HPO4, 2 mM KH2PO4, pH 7.4; 0.05% (v/v) Tween-20). The RED-tris-NTA dye was diluted in PBS-T to 100 nM. For labelling, the recombinant protein and diluted dye were mixed in a 1:1 volume ratio and incubated for 30 minutes at room temperature. Recombinant cyclin F-GST was also diluted in PBS-T buffer prior to analysis. Concentrations of cyclin F-GST (cyclin box) ranged from 0-22 μM. Before MST measurements were carried out, samples were centrifuged for 10 minutes at 4° C. at 14,000×g. All MST measurements were performed on a NanoTemper Monolith™NT.115 instrument using standard treated capillaries at room temperature. Final dye concentration of 25 nM yielded the fluorescence intensity of around 300 counts at a LED power of 50%. Accordingly, the MST power range was between 40-60% intensity with a laser-on time of 30 s and a laser-off time of 5 s. All data were analysed by MO Affinity Analysis Software.

Flag-tagged cyclin F = target: T1, Flag-tagged cyclin F; assay: co-immunoprecipitation with anti-myc from HEK293 lysate, immunoblot
Description: A. HEK293 cells were transfected with cyclin F-flag and TDP-43-HA. After 24 hours, cells were lysed and anti-flag antibodies or an IgG control were used to immunoprecipitate Flag-cyclin F. Eluates were analyzed by immunoblotting using antibodies recognizing cyclin F and TDP-43. B. HEK293 cells were transfected with cyclin F-flag and TDP-43-HA. At 24 hours post-transfection, cells were lysed and Flag-cyclin F was immunoprecipitated using antibodies recognizing the Flag tag. Eluates were analyzed by immunoblotting using antibodies recognizing cyclin F and phospho-TDP-43 (S409/410). C. Schematic showing the position of the RxL>AxA mutation within TDP-43. D. Cells were transfected with cyclin F and TDP-43(WT) or TDP-43(RxL>AxA). Cyclin F was immunoprecipitated from cell lysates using antibodies recognizing the Flag tag. Eluates were analyzed using anti-cyclin F and anti-TDP-43. E. Schematic showing the TDP-43 fragments used for immunoprecipitations. […] Eluates were analyzed by immunoblotting using antibodies recognizing cyclin F and myc.
In order to determine whether cyclin F interacts with TDP-43 through the typical RxL motif present in all known cyclin F substrates, constructs expressing wild-type TDP-43 or variant TDP-43 (RxL>AxA) were transfected into HEK293 cells (FIG. 1C). After 24 hours, the cells were lysed and Flag-cyclin F was immunoprecipitated and analyzed for TDP-43 by immunoblotting. […]

binding result [1]	binding result (Flag-tagged cyclin F)	Binder
binds	–	GST-cyclin domain of cyclin F (aa 302-497) (other, Made in E. coli from pGEX5; also called cyclin box of cyclin F; cyclin F-GST (cyclin box); not shown: glutathione S-transferase (GST) tag of the pGEX5 vector) QKGLNDTMRYILIDWLVEVATMKDFTSLCLHLTVECVDRYLRRRLVPRYRLQLLGIACMVICTRFISKEILTIREAVWLTDNTYKYEDLVRMMGEIVSALEGKIRVPTVVDYKEVLLTLVPVELRTQHLCSFLCELSLLHTSLSAYAPARLAAAALLLARLTHGQTQPWTTQLWDLTGFSYEDLIPCVLSLHKKCF
–	no binding	Myc-tagged C-terminal fragment of TDP-43 (167-414) (other, UniProt Q13148 167-414, looked up, Over-expressed in HEK293 cells with Flag-cyclin F; also called myc-TDP-43; not shown: myc tag, printed as myc-TDP-43) MIDGRWCDCKLPNSKQSQDEPLRSRKVFVGRCTEDMTEDELREFFSQYGDVMDVFIPKPFRAFAFVTFADDQIAQSLCGEDLIIKGISVHISNAEPKHNSNRQLERSGRFGGNPGGFGNQGGFGNSRGGGAGLGNNQGSNMGGGMNFGAFSINPAMMAAAQAALQSSWGMMGMLASQQNQSGPSGNNQNQGNMQREPNQAFGSGNNSYSGSNSGAAIGWGSASNAGSGSGFNGGFGSSMDSKSSGWGM
